# Assay results published in PMC7139386, “Defects in Galactose Metabolism and Glycoconjugate Biosynthesis in a UDP-Glucose Pyrophosphorylase-Deficient Cell Line Are Reversed by Adding Galactose to the Growth Medium” (International Journal of Molecular Sciences, 2020).
# Positions count from the first letter of the chain named. Names and notes keep the numbering of the source.
# B1: HsUGP (Homo sapiens) (protein)
# chain: MSRFVQDLSKAMSQDGASQFQEVIRQELELSVKKELEKILTTASSHEFEHTKKDLDGFRKLFHRFLQEKGPSVDWGKIQRPPEDSIQPYEKIKARGLPDNISSVLNKLVVVKLNGGLGTSMGCKGPKSLIGVRNENTFLDLTVQQIEHLNKTYNTDVPLVLMNSFNTDEDTKKILQKYNHCRVKIYTFNQSRYPRINKESLLPVAKDVSYSGENTEAWYPPGHGDIYASFYNSGLLDTFIGEGKEYIFVSNIDNLGATVDLYILNHLMNPPNGKRCEFVMEVTNKTRADVKGGTLTQYEGKLRLVEIAQVPKAHVDEFKSVSKFKIFNTNNLWISLAAVKRLQEQNAIDMEIIVNAKTLDGGLNVIQLETAVGAAIKSFENSLGINVPRSRFLPVKTTSDLLLVMSNLYSLNAGSLTMSEKREFPTVPLVKLGSSFTKVQDYLRRFESIPDMLELDHLTVSGDVTFGKNVSLKGTVIIIANHGDRIDIPPGAVLENKIVSGNLRILDH
# notes: octameric
# B2: HsUGP (Homo sapiens; G116D) (protein)
# chain: B1 chain with G116D
# notes: octameric
# Key:
# Type in all cases: biochemical, Homo sapiens
# [1] = substrate: O=P(O)(O)O[C@H]1O[C@H](CO)[C@H](O)[C@H](O)[C@H]1O; experiment: continuous assay based on PPi detection, forward reaction, Michaelis-Menten and cooperative fits; conditions: Gal1P varied 0.01-2 mM at 1 mM UTP
# [2] = substrate: O=P(O)(O)O[C@H]1O[C@H](CO)[C@@H](O)[C@H](O)[C@H]1O; experiment: continuous assay based on PPi detection, forward reaction, Michaelis-Menten fit; conditions: Glc1P varied 0.01-1 mM at 1 mM UTP
# [3] = substrate: O=c1ccn([C@@H]2O[C@H](COP(=O)(O)OP(=O)(O)OP(=O)(O)O)[C@@H](O)[C@H]2O)c(=O)[nH]1; experiment: as above; conditions: UTP varied 0.01-0.8 mM at 2 mM Glc1P
Protein,Km [1] [µM],Km [2] [µM],Km [3] [µM]
B1,842.0 ± 72.8,34.2 ± 1.99,76.29 ± 3.96
B2,–,53.97 ± 4.11,79.50 ± 4.93
